Biological target: T1, OmpTs, DABCYL-RRSRRV-K(5-FAM)
T1 chain: RRSRRVK

B1: Outer Membrane Protease T (protein)
chain: STETLSFTPDNINADISLGTLSGKTKERVYLAEEGGRKVSQLDWKFNNAAIIKGAINWDLMPQISIGAAGWTTLGSRGGNMVDQDWMDSSNPGTWTDESRHPDTQLNYANEFDLNIKGWLLNEPNYRLGLMAGYQESRYSFTARGGSYIYSSEEGFRDDIGSFPNGERAIGYKQRFKMPYIGLTGSYRYEDFELGGTFKYSGWVESSDNDEHYDPGKRITYRSKVKDQNYYSVAVNAGYYVTPNAKVYVEGAWNRVTNKKGNTSLYDHNNNTSDYSKNGAGIENYNFITTAGLKYTF
  cleavage of quenched fluorescent substrate: a substrate (RRSRRVK (SEQ ID NO:9)) specific for the E. coli surface protease OmpT

— US20220249369
